Results taken from patent US6696409.

Experiments:
[1] = target: Y1 receptors in anaesthetised rats (rat); assay: cell-based or functional assay
[2] = target: Y2-like receptors in anaesthetised rats (rat); assay: cell-based or functional assay

Increase in BP (rel to NPY), anaesthetised rats (relative to NPY) [1]: 0 | EC50 of the change in pulse interval (PI %), vagal stimulation in anaesthetised rats [2]: 1.26 nmol
Substance: Ac[L28,I30]NPY24-36 (from UniProt P01303 52-64) (peptide)
